Laboratory results as given in patent US20110065645A1, “Compositions and Methods for Modulating Neuron Degeneration and Neuron Guidance” (The Regents of the University of California, priority 2009, published 2011).
Peptide text beside a SMILES is read from it. * marks the point of attachment. Cbz = O=C(OCc1ccccc1)*

T1: Fzd3 (Mus musculus, UniProt Q61086)
T1 construct: expressed in transfected cells; host or cells: HEK293T
T1 sequence (Q61086 23-666): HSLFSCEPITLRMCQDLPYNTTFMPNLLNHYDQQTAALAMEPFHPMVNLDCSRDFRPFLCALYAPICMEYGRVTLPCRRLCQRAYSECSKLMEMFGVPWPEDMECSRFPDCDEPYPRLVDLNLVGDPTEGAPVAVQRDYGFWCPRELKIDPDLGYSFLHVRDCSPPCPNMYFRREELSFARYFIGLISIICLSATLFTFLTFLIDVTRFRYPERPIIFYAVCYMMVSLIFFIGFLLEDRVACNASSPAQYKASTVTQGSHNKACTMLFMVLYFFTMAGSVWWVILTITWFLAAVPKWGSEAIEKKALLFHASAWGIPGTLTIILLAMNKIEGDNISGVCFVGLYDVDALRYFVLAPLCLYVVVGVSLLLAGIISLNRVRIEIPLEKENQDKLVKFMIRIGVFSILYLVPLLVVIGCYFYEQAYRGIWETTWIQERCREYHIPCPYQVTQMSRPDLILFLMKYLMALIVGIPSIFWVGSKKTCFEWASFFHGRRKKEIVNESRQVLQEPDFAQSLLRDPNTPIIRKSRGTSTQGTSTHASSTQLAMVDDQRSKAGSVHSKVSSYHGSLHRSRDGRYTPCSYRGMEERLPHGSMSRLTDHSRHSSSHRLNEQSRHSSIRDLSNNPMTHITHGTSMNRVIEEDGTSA


Tests used:
Format in all cases: cell-based
[1] = system: β-catenin; experiment: β-catenin immunostaining in commissural axon growth cones; conditions: bath application; LiCl 2 mM
From the text: To understand how atypical PKC/Par pathway regulates axon guidance, we set out to determine the subcellular localization of aPKC, their substrates and downstream cellular effectors. […] Thus, our high-resolution confocal imaging detects a tendency of β-catenin being concentrated to one side of the growth cone (FIG. 9A). It is possible that there is low level of Wnt proteins in the culture (many neurons express Wnts). […] Therefore, it is also possible that intrinsic aPKC signaling can create chirality within the growth cone with out extrinsic signals. Such intrinsic polarity may then robustly regulate cellular morphology upon directional instructions from the environment such as a Wnt gradient. It is well known that GSK3β phosphorylates β-catenin, which then leads to proteosome-mediated degradation of β-catenin. And it is also known that GSK3β is phosphorylated and inhibited by PKCζ^(1,2). Therefore, inhibiting GSK3β or the proteosome activity generally should increase β-catenin level throughout the growth cone, canceling the asymmetry. […] We are now testing the hypothesis that Wnt proteins may locally activate PKCζ, which then inhibits GSK3β and locally stabilizes β-catenin, which is part of the asymmetric cellular mechanism leading to directional choice of a growth cone. We examine the localization of β-catenin in post-crossing commissural axon growth cones in the “post-crossing” assay and “open-book” assays.

[2] = system: cortical neurons; experiment: Cortical neuron death/survival assay under PKCζ inhibition (Tuj1, TUNEL, DAPI staining); conditions: for cell death induced by PKC inhibition: pretreatment before pseudosubstrate peptide
From the text: 1. PKCζ is required for survival of cortical neurons. E15.5 cortical neurons were dissociated and cultured for 2 days in the presence of various concentrations of a cell membrane penetrating myristoylated peptide derived in the pseudosubstrate domain of PKC (FIGS. 12A-12D). This peptide is a specific inhibitor of PKCζ.
2. Axon degeneration procedes cell body death when PKC is inhibited. We examined the timing of axon degeneration and cell body death. […] The death induced by PKCζ inhibition is much faster than Aβ peptide induced neuronal death (FIG. 12D), probably because the PKCζ is an essential kinase and peptide inhibition causes instant death, whereas Aβ has to bind to cell surface receptor and trigger a signaling cascade to cause death, which requires a longer time.
3. Wnts are trophic factors for cortical neurons. […] Nuclear shrinkage (pyknosis) is a hallmark of neuronal cell death. Using DAPI staining, we can visualize the cell nuclei (FIG. 14B). […] Initial cortical axons and dendrite form and grow but axons start to disintegrate at E18.5 (FIG. 14D, from Wang et al 2006),^(13) (FIGS. 12F, 12K). Based on our preliminary results, we propose that Wnts are not only axon guidance molecules but also regulate neuronal survival and axon degeneration acting via PKC (FIG. 15).
3. Survival and cell death assays for screening of monoclonal antibodies and small compounds. We use the same cell death/survival assay as described in FIGS. 12A-14D and use microtubule staining to analyze the integrity of microtubules, DAPI stain to measure the size of cell nuclei and TUNEL staining to assay cell death. Microtubule disassembly is quantified by staining intensity of Tuj1 and Tau antibodies. The size of cell nuclei is binned into difference sizes and the distribution of the nuclei size is used as quantification of pyknosis (FIG. 14C).

[3] = biological target: T1, Fzd3; experiment: Surface biotinylation and avidin immunoprecipitation of Fzd3 in HEK293T cells; conditions: HEK293T co-transfection, Vgl2 value in the presence of Dvl1
From the text: Dvl and Vgl have antagonistic functions on Fzd3 phosphorylation. […] We transfected Fzd3-mCherry in HEK293T cells then surface biotinylated and immunoprecipitated (IP) the surface molecules with strepavidin-conjugated beads to obtain membrane-localized proteins. […] We tested whether these two Fzd3 bands represent phosphorylation states of the Frizzled3 protein, one being phosphorylated/hyperphosphorylated Fzd3 (p-Fzd3) and the other non-phosphorylated Fzd3. […] Phosphorylation of Fzds has been shown previously in Xenopus oocytes
It has been proposed that Frizzled internalization is necessary for PCP signaling and phenotypes (Gagliardi et al., 2008; Yu et al., 2007). However, it has never been directly tested whether the cell surface level of Fzd, the Wnt-PCP receptor, changes upon Wnt addition. By using our surface biotinylation and immunoprecipitation with avidin, we show here, 15 minutes after Wnt addition, cell surface level of Fzd3-EGFP is diminished (FIG. 18C, Avidin IP, lane 3 anti-EGFP IB). […] This Fzd3 receptor oscillation from and to the membrane appeared to be a Wnt-Fzd specific effect because a non-Wnt binding receptor, such as the Insulin receptor stayed the same throughout the Wnt stimulation (FIG. 18C, Avidin IP, anti-Insulin Rβ IB). The Wnt-dependent Fzd3 oscillation is quantified in FIG. 18D (cross symboled line). […] In addition, PCP components appeared to effect this Wnt dependent oscillation of Fzd3 to and from the membrane. When Dvl1 is over expressed with Fzd3, we found within 30 minutes Fzd3 is unable to be internalized (FIG. 25B, lanes 5-7 and line). However, upon the introduction of Vangl2 into the transfection mix, Fzd3 oscillation is resumed (FIG. 25B, lanes 8-10 and circle symboled line).
Surface biotinylation and immunopreciptiation. 30 hours after transfection with the indicated constructs into HEK293T cells (FuGene, Roche), followed by 8-hour incubation in Optimem and subsequent bath application of recombinant Wnt5a (R&D Systems), surface proteins were subsequently labeled on ice with 1 mg/ml of Sulfo-NHS-LC-Biotin reagent (Pierce). The cell lysates were collect over a period of 30 minutes on ice in the following lysis buffer: 20 mM Tris pH7.6, 150 mM NaCl, 1% Triton, 0.1% SDS, 2.5 mM EDTA, 2.5 mM EGTA, protease Inhibitors (Roche). For the membrane immunoprecipitation, 600 ug of protein extracts were incubated overnight and retrieved by NeutrAvidin-coated Agarose beads (Pierce), the bound fraction was boiled and loaded on SDS-PAGE gel and analyzed by western blot analysis. To visualize the input amount 20 ug of total lysate was loaded, and for the Avidin IPs the total amount was loaded for western blot analysis. The following primary antibodies were used for the immunoblots: α-Frizzled3 (Wang et al., 2006), α-Vangl2 (Santa Cruz), α-mCherry/DsRed (Clontech), α-Jun (Cell Signaling), α-phospho-Jun (Cell Signaling), α-JNK (Cell Signaling), α-phospho-JNK (Cell Signaling), α-Flag (Sigma), α-GAPDH (Chemicon), α-Insulin Rβ (Santa Cruz).

Fzd3 at the membrane relative to Fzd3-mCherry transfected alone [3] [fold] | Molecule | β-catenin level and asymmetry in the growth cone [1] | cell death induced by PKC inhibition [2] | also measured
 | [Cl-].[Li+] [LiCl, reference compound] | elevated the level of β-catenin throughout the growth cone | block/reduce the cell death | pyknosis (nuclear shrinkage, DAPI staining, Image J) ([2]; neuronal death induced by PKCζ inhibition): partially blocked
 | CC(C)C[C@@H](C=O)NC(=O)[C@H](CC(C)C)NC(=O)[C@H](CC(C)C)NC(=O)OCc1ccccc1 [MG132, reference compound] (Cbz-Leu-Leu-Leu-aldehyde) | elevated the level of β-catenin throughout the growth cone |  | 
2 | Vgl2: Vang Gogh Like protein 2 expressed by transfection in HEK293T cells |  |  | 
 | sFPR2: a Wnt inhibitor, secreted Frizzled-related protein (protein, UniProt Q96HF1 25-295, looked up) Secreted frizzled-related …: LFLFGQPDFSYKRSNCKPIPANLQLCHGIEYQNMRLPNLLGHETMKEVLEQAGAWIPLVMKQCHPDTKKFLCSLFAPVCLDDLDETIQPCHSLCVQVKDRCAPVMSAFGFPWPDMLECDRFPQDNDLCIPLASSDHLLPATEEAPKVCEACKNKNDDDNDIMETLCKNDFALKIKVKEITYINRDTKIILETKSKTIYKLNGVSERDLKKSVLWLKDSLQCTCEEMNDINAPYLVMGQKQGGELVITSVKRWQKGQREFKRISRSIRKLQC | eliminated asymmetric distribution of β-catenin |  | 
3 | Dvl1: Dvl1-EGFP expressed by transfection in HEK293T cells (protein, left off: large carriers, Dvl1-EGFP expressed by transfection in HEK293T cells) MAETKIIYHMDEEETPYLVKLPVAPERVTLADFKNVLSNRPVHAYKFFFKSMDQDFGVVKEEIFDDNAKLPCFNGRVVSWLVLAEGAHSDAGSQGTDSHTDLPPPLERTGGIGDSRPPSFHPNVASSRDGMDNETGTESMVSHRRERARRRNRDEAARTNGHPRGDRRRDLGLPPDSASTVLSSELESSSFIDSDEEDNTSRLSSSTEQSTSSRLVRKHKCRRRKQRLRQTDRASSFSSITDSTMSLNIITVTLNMERHHFLGISIVGQSNDRGDGGIYIGSIMKGGAVAADGRIEPGDMLLQVNDVNFENMSNDDAVRVLREIVSQTGPISLTVAKCWDPTPRSYFTIPRADPVRPIDPAAWLSHTAALTGALPRYGTSPCSSAITRTSSSSLTSSVPGAPQLEEAPLTVKSDMSAIVRVMQLPDSGLEIRDRMWLKITIANAVIGADVVDWLYTHVEGFKERREARKYASSMLKHGFLRHTVNKITFSEQCYYVFGDLCSNLASLNLNSGSSGASDQDTLAPLPHPSVPWPLGQGYPYQYPGPPPCFPPAYQDPGFSCGSGSAGSQQSEGSKSSGSTRSSHRTPGREERRATGAGGSGSESDHTVPSGSGSTGWWERPVSQLSRGSSPRSQASAVAPGLPPLHPLTKAYAVVGGPPGGPPVRELAAVPPELTGSRQSFQKAMGNPCEFFVDIM |  |  | Fzd3 at the membrane relative to Fzd3-mCherry transfected alone ([3]; listed as Dvl): approximately 3 fold
 | Wnt7a: recombinant Wnt7a (protein, UniProt O00755 32-349, looked up) Protein Wnt-7a: LGASIICNKIPGLAPRQRAICQSRPDAIIVIGEGSQMGLDECQFQFRNGRWNCSALGERTVFGKELKVGSREAAFTYAIIAAGVAHAITAACTQGNLSDCGCDKEKQGQYHRDEGWKWGGCSADIRYGIGFAKVFVDAREIKQNARTLMNLHNNEAGRKILEENMKLECKCHGVSGSCTTKTCWTTLPQFRELGYVLKDKYNEAVHVEPVRASRNKRPTFLKIKKPLSYRKPMDTDLVYIEKSPNYCEEDPVTGSVGTQGRACNKTAPQASGCDLMCCGRGYNTHQYARVWQCNCKFHWCCYVKCNTCSERTEMYTCK |  | block/reduce the cell death | axon degeneration / reduction of microtubule staining (Tuj1) ([2]; 5 um pseudosubstrate peptide): much less degeneration was seen; axons remaining judged by Tuj1 staining ([2]; 10 um pseudosubstrate peptide): more axons still remain
